Biological target: polymerized microtubules

B1: recombinant R293W mutant KIF3B motor domain (amino acids 1-365) with N-terminal 6x-Histidine tag (protein)
chain: MSKLKSSESVRVVVRCRPMNGKEKAASYDKVVDVDVKLGQVSVKNPKGTAHEMPKTFTFDAVYDWNAKQFELYDETFRPLVDSVLQGFNGTIFAYGQTGTGKTYTMEGIRGDPEKRGVIPNSFDHIFTHISRSQNQQYLVRASYLEIYQEEIRDLLSKDQTKRLELKERPDTGVYVKDLSSFVTKSVKEIEHVMNVGNQNRSVGATNMNEHSSRSHAIFVITIECSEVGLDGENHIRVGKLNLVDLAGSERQAKTGAQGERLKEATKINLSLSALGNVISALVDGKSTHIPYWDSKLTRLLQDSLGGNAKTVMVANVGPASYNVEETLTTLRYANRAKNIKNKPRVNEDPKDALLREFQEEIARL
  rate of ATP hydrolysis (kinesin ATPase end-point assay, free phosphate) with increasing amounts of microtubules: When compared to wild-type, the mutant motor domain displayed a significantly reduced rate of ATP hydrolysis upon incubation with various concentrations of microtubules

— US20180080021
